Assay [1] addresses T1, Cynomolgus DLL3 ECD with Myc-tag on N-terminus and His-tag on C-terminus (cynomolgus).
T1 construct: also called Myc-cynoDLL3-His; Cyno DLL3
T1 chain: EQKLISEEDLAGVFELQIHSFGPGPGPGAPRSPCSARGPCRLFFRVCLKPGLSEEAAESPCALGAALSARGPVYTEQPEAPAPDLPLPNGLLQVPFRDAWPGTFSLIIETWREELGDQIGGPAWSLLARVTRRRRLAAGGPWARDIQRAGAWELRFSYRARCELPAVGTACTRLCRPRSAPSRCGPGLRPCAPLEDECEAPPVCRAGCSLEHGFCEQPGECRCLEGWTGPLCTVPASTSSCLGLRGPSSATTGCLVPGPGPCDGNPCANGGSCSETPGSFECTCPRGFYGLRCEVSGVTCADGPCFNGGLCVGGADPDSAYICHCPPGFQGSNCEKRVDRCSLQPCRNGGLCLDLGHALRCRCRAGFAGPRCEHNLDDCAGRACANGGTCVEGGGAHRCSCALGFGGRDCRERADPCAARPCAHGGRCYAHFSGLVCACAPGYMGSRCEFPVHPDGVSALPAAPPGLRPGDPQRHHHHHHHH
The assay is described as follows: SPR Biacore 8K, 37 C, pH 7.4; bispecific captured on anti-human Fc, DLL3 as analyte, 1:1 model. As to the method:
(§1) Binding affinity of anti-DLL3 arm in the anti-DLL3/CD3 antibodies to human or cynomolgus DLL3 at pH 7.4 were assessed at 37 degrees C. using Biacore 8K instrument (GE Healthcare). Anti-human Fc (GE Healthcare) was immobilized onto all flow cells of a CM4 sensor chip using amine coupling kit (GE Healthcare). The bispecific antibodies were captured onto the anti-Fc sensor surfaces, and then recombinant human or cynomolgus DLL3 was injected over the flow cell. All antibodies and analytes were prepared in ACES pH 7.4 containing 20 mM ACES, 150 mM NaCl, 0.05% Tween 20, 0.005% NaN₃. Sensor surface was regenerated each cycle with 3M MgCl₂.

Another assay concerns the target T2, recombinant human DLL3 (human, UniProt Q9NYJ7 27-492).
T2 sequence: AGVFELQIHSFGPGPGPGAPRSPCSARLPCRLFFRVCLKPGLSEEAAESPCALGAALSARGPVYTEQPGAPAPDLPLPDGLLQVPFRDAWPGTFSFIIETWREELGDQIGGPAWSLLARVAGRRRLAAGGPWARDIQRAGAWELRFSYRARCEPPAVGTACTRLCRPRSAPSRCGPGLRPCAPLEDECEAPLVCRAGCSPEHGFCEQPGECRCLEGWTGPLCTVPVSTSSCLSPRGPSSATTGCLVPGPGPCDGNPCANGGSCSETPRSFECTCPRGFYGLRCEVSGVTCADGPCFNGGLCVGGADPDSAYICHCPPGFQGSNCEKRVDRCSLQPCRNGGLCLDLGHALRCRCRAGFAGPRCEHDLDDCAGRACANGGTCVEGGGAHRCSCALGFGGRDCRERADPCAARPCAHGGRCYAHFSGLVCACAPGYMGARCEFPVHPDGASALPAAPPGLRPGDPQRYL
The description is as above. As to the method: as §1

The target of assay [2] is recombinant human CD3eg protein (CD3 epsilon-gamma, heterodimer of CD3 epsilon and CD3 gamma) (human, UniProt P07766 23-126; P09693 23-116). The assay is described as follows: SPR Biacore 8K, 37 C, pH 7.4; bispecific captured on anti-human Fc, human CD3eg as analyte, 1:1 model. As to the method:
as §1, with “of the anti-CD3” for “of anti-DLL3”, “arm of” for “arm in”, “anti-DLL3/CD3 bispecific” for “anti-DLL3/CD3”, “to CD3” for “to human or cynomolgus DLL3”, “7.4 was” for “7.4 were”, “human CD3eg proteins (CD3 epsilon-gamma, heterodimer of CD3 epsilon and CD3 gamma)” for “human or cynomolgus DLL3”

Drawing on patent US20240150465A1 (Chugai, published 2024), this text covers Kd, koff and kon for nine molecules.

Substitutions are numbered along the chain they refer to.

A word on the Kd: it is the constant that tells how readily two partners part at equilibrium. In general, koff refers to a measure of how fast the partners let go of each other. Broadly, the kon is the second-order rate constant of association.

Chain of recombinant human CD3eg protein (CD3 epsilon-gamma, heterodimer of CD3 epsilon and CD3 gamma) (P07766 23-126 limits assumed, chain 1 of 2): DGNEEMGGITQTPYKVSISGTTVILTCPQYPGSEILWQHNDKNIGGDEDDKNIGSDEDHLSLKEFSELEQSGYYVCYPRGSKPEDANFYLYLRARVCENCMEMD
Chain of recombinant human CD3eg protein (CD3 epsilon-gamma, heterodimer of CD3 epsilon and CD3 gamma) (P09693 23-116 limits assumed, chain 2 of 2): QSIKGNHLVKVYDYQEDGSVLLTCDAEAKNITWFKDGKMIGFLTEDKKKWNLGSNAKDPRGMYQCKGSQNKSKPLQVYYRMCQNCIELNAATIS

B1: DLA0316/TR01 (bispecific antibody, V domains shown)
VH 1: QEQLVESGGGLVQPGGSLKLSCKVSGFDFSNYGVSWVRQAPGKGLEWIGYIDPAFGRTYYASWVNGRFTISSHNAQNTLYLQLNSLTAADTATYFCVRVALVVAGVAYYGMDVWGPGTLVTVSS
VL 1: ADVVMTQTPASVEAAVGGTVTINCQASQNIYSYLSWYQQKPGQPPKLLIYRTSTLASGVPSRFKGSGSGTQFTLTISDLECADAATYYCQSYYYSSGSSYGAFAFGGGTEVVVK
VH 2: QVQLVESGGGVVQPGGSLRLSCAASGFTFSNAWMHWVRQAPGKGLEWVAQIKDKSQNYATYVAESVKGRFTISRADSKNSIYLQMNSLKTEDTAVYYCRYVHYAAGYGVDIWGQGTTVTVSS
VL 2: DIVMTQSPLSLPVTPGEPASISCRSSQPLVHSNRNTYLHWYQQKPGQAPRLLIYKVSNRFSGVPDRFSGSGSGTDFTLKISRVEAEDVGVYYCGQGTQVPYTFGQGTKLEIK
notes: IgG-type anti-DLL3/CD3 bispecific made by Fab arm exchange
In assay [1], B1 returned a Kd of 19.9 pM, a koff of 4.96e-05 s⁻¹ and a kon of 2.49e+06 M⁻¹ s⁻¹. Moreover, in the assay with recombinant human DLL3, the Kd worked out at 35.3 pM, the koff amounted to 8.72e-05 s⁻¹ and the kon turned out to be 2.47e+06 M⁻¹ s⁻¹.

B2: D30841AE08/TR01 (bispecific antibody, V domains shown)
VH 1: QVTLRESGPALVKPTQTLTLTCTFSGFSLSSSYDMGWVRQAPGQGLEWMGTIYTGDYSTDYASWAKGRVTISVDTSKNQFSLKLSSVTAADTAVYYCARHTGYGYFGLWGQGTLVTVSS
VL 1: DIQLTQSPSFLSASVGDRVTITCQSTESVYGSDWLSWYQQKPGQPPKLLIYQASNLEIGVPSRFSGSGSGTDFTLTINSLEAEDAATYYCQGYYSGYIYAFGGGTKVEIK
VH 2: B1 VH 2
VL 2: B1 VL 2
notes: as for B1
As for B2, in assay [1], the affinity, expressed as Kd, was 73.7 pM; the koff stood at 0.000191 s⁻¹; the kon came out at 2.59e+06 M⁻¹ s⁻¹. Also, in the assay with recombinant human DLL3, the Kd is 87.2 pM, the koff stood at 0.000215 s⁻¹ and the kon is 2.47e+06 M⁻¹ s⁻¹.

B3: D30316AE03/TR01 (bispecific antibody, V domains shown)
VH 1: EVQLVESGGGLVQPGGSLRLSCAASGFTFSNYGVSWVRQAPGQGLEWMGYIDIAFGRTYYASWVTGRITINPDTSKNQFSLQLNSVTPEDTAVYYCARVALVVAGVAYYGMDVWGQGTLVTVSS
VL 1: DIVMTQSPDSLAVSLGERATINCQASQNIYSYLSWYQQKPGKAPKLLIYRTSTLASGVPDRFSGSGSGTDFTLKISRVEAEDVGVYYCQSYYYSSGSSYGAFAFGQGTKVEIK
VH 2: B1 VH 2
VL 2: B1 VL 2
notes: as for B1
In the case of B3, in assay [1], the affinity, expressed as Kd, was 11.7 pM; the koff is 2.72e-05 s⁻¹; the kon was determined as 2.32e+06 M⁻¹ s⁻¹. Moreover, in the assay with recombinant human DLL3, the dissociation constant Kd is 26.1 pM, the koff came to 6.11e-05 s⁻¹ and the association rate constant (kon) is 2.34e+06 M⁻¹ s⁻¹. Besides, in assay [2], the Kd turned out to be 127000 pM, the koff turned out to be 0.0169 s⁻¹ and the kon turned out to be 134000 M⁻¹ s⁻¹.

B4: D30316AE03/AN121 (bispecific antibody, V domains shown)
VH 1: B3 VH 1
VL 1: B3 VL 1
VH 2: QVQLVESGGGLVQPGRSLRLSCAASGFTFSNAWMHWVRQAPGKGLEWVAQIKDRANSYNTYYAESVKGRFTISRDDSKNSIYLQMNSLKTEDTAVYYCRYVHYTTYAGSSFSYGVDAWGQGTTVTVSS
VL 2: B1 VL 2
notes: as for B1
Consider B4, for which, in assay [2], the Kd amounted to 7550 pM, the koff came to 0.000744 s⁻¹ and the kon is 98600 M⁻¹ s⁻¹.

B5: DLA0841/TR01 (bispecific antibody, V domains shown)
VH 1: QEQLVESGGGLVQPEGSLTLTCTASGFSFSSSYDMCWVRQAPGKGPEWIACIYTGDGSTDYASWAKGRFTVSKASSTTVTLQMTSLAVADTATYFCARNSGYGYFGLWGPGTLVTVSS
VL 1: QVLTQTPSPVSAAVGGTVTISCQSTESVYGSDWLSWYQQKPGQPPKVLIYQASNLEIGVPSRFKGSGSGTQFTLTISGAQCDDAATYYCQGYYSGYIYAFGGGTEVVVK
VH 2: B1 VH 2
VL 2: B1 VL 2
notes: as for B1
Take B5: in assay [1], binding was characterised by a dissociation constant (Kd) of 62.1 pM, the koff came to 0.000238 s⁻¹ and the kon is 3.83e+06 M⁻¹ s⁻¹. Moreover, in the assay with recombinant human DLL3, the Kd is 63.9 pM, the koff is 0.000247 s⁻¹ and the kon is 3.87e+06 M⁻¹ s⁻¹.

B6: D30316AE03/AN395 (bispecific antibody, V domains shown)
VH 1: B3 VH 1
VL 1: B3 VL 1
VH 2: QVQLVESGGGLVQPGRSLRLSCAASGFTFSNAWMHWVRQAPGKGLEWVAQIKDKANGYNAYYAPSVKGRFTISRDDSKNSIYLQMNSLKTEDTAVYYCRYVHYTTFGFGLSYGGVDAWGQGTTVTVSS
VL 2: B1 VL 2
notes: as for B1
Take B6: in assay [2], the Kd worked out at 30700 pM, the koff worked out at 0.00743 s⁻¹ and the kon stood at 242000 M⁻¹ s⁻¹.

B7: D30841AE11/TR01 (bispecific antibody, V domains shown)
VH 1: B2 VH 1
VL 1: B2 VL 1 with I98S
VH 2: B1 VH 2
VL 2: B1 VL 2
notes: as for B1
In assay [1], B7 had a Kd of 142 pM, a koff of 0.000265 s⁻¹ and a kon of 1.86e+06 M⁻¹ s⁻¹. Moreover, in the assay with recombinant human DLL3, the Kd was 172 pM, the koff came out at 0.000325 s⁻¹ and the kon was found to be 1.88e+06 M⁻¹ s⁻¹.

B8: D30316AE03/AN119 (bispecific antibody, V domains shown)
VH 1: B3 VH 1
VL 1: B3 VL 1
VH 2: B4 VH 2 with R54K, A55Q, N59A, T60A, A107S, S109G, S110F
VL 2: B1 VL 2
notes: as for B1
With B8, in assay [2], the Kd was found to be 11000 pM, the koff was determined as 0.0016 s⁻¹ and the kon came out at 145000 M⁻¹ s⁻¹.

B9: D30316AE03/AN104 (bispecific antibody, V domains shown)
VH 1: B3 VH 1
VL 1: B3 VL 1
VH 2: B4 VH 2 with A55Q, S57G, Y106T, A107Y, S110Y, F111Y, S112Q, Y113F
VL 2: B1 VL 2
notes: as for B1
With B9, in assay [2], the Kd came to 37300 pM, the koff turned out to be 0.00266 s⁻¹ and the kon was found to be 71400 M⁻¹ s⁻¹.
